Test results from US20180335429.

Target: T1, MMP substrate, 5-FAM-GGPLGVRGKK(CPQ2)-PEG2-C, presented on the iron-oxide nanoparticle (ABN) surface (not fully specified)
T1 chain: GGPLGVRGKKC

B1: mouse MMP9 (protein)
chain: APYQRQPTFVVFPKDLKTSNLTDTQLAEAYLYRYGYTRAAQMMGEKQSLRPALLMLQKQLSLPQTGELDSQTLKAIRTPRCGVPDVGRFQTFKGLKWDHHNITYWIQNYSEDLPRDMIDDAFARAFAVWGEVAPLTFTRVYGPEADIVIQFGVAEHGDGYPFDGKDGLLAHAFPPGAGVQGDAHFDDDELWSLGKGVVIPTYYGNSNGAPCHFPFTFEGRSYSACTTDGRNDGTPWCSTTADYDKDGKFGFCPSERLYTEHGNGEGKPCVFPFIFEGRSYSACTTKGRSDGYRWCATTANYDQDKLYGFCPTRVDATVVGGNSAGELCVFPFVFLGKQYSSCTSDGRRDGRLWCATTSNFDTDKKWGFCPDQGYSLFLVAAHEFGHALGLDHSSVPEALMYPLYSYLEGFPLNKDDIDGIQYLYGRGSKPDPRPPATTTTEPQPTAPPTMCPTIPPTAYPTVGPTVGPTGAPSPGPTSSPSPGPTGAPSPGPTAPPTAGSSEASTESLSPADNPCNVDVFDAIAEIQGALHFFKDGWYWKFLNHRGSPLQGPFLTARTWPALPATLDSAFEDPQTKRVFFFSGRQMWVYTGKTVLGPRSLDKLGLGPEVTHVSGLLPRRLGKALLFSKGRVWRFDLKSQKVDPQSVIRVDKEFSGVPWNSHDIFQYQDKAYFCHGKFFWRVSFQNEVNKVDHEVNQVDDVGYVTYDLLQCP
- cleavage of the substrate: it was confirmed that mouse MMP9 cleaves the ABN MMP9 substrate
